We go through twelve molecules from patent publication US20250042994A1 (HAINAN SIMCERE ZAIMING PHARMACEUTICAL, published 2025).

One experiment addresses T1, Human CD19-his protein (human, UniProt P15391 20-291).
T1 construct: bought protein; also called recombinant human CD19-His; CD19 full-length protein; not shown: His tag
T1 sequence (looked up): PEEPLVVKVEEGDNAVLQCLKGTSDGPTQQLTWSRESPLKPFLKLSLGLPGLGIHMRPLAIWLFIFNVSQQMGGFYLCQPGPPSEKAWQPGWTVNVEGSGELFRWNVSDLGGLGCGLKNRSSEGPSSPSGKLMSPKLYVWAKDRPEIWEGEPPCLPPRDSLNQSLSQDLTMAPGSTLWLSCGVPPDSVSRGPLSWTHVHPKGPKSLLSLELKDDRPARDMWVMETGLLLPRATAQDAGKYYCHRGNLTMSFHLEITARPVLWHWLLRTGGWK
The experiment can be described thus: SPR Biacore, Ab captured on Protein A, CD19-His analyte. The procedure:
A sample buffer and a running buffer were HBS-EP+ (10 mM HEPES, 150 mM NaCl, 3 mM EDTA and 0.05% surfactant P20) (GE Healthcare; BR-1006-69). The flow-through cell was set to 25° C. The sample block was set to 16° C. Both were pretreated with the running buffer. In each cycle, an antibody to be detected was first captured with a Protein A chip, and then a single concentration of CD19 antigen protein was injected. The binding and dissociation processes of the antibody and the antigen protein were recorded, and finally Glycine pH 1.5 (GE Healthcare; BR-1003-54) was used to complete chip regeneration. The binding was measured by injecting different concentrations of recombinant human CD19-His proteins in a solution for 240 s with a flow rate of 30 μl/min. The concentration started from 200 nM (see the detailed results for the actual concentration in the test) and was diluted at 1:1, making a total of 5 concentrations. The dissociation phase was monitored for up to 600 s and was triggered by switching from sample solution to running buffer. The surface was regenerated by washing with a 10 mM glycine solution (pH 1.5) for 30 s at a flow rate of 30 μl/min. Bulk refractive index difference was corrected by subtracting the response obtained from the goat anti-human Fc surface. Blank injection was also subtracted (=double reference). For calculation of apparent KD and other kinetic parameters, Langmuir 1:1 model was used.
Background: In SPR one partner is held on a chip, and binding of the other changes the refractive index at the surface.

In experiment [1] the target is T2, human CD19 exon1-3-His tag protein (human, UniProt P15391 20-186, limits assumed).
T2 construct: membrane-distal part of the extracellular region, made in HEK293E cells; not shown: His tag
T2 sequence (looked up): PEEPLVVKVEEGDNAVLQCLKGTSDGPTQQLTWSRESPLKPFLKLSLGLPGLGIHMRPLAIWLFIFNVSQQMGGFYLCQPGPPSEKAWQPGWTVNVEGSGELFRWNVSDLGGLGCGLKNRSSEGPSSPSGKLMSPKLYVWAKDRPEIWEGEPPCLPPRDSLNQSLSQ
The experiment can be described thus: ELISA on coated human CD19 exon 1-3-His. The method, then: Human CD19-his protein (purchased from ACROBiosystems, catalog number: CD9-H52H2) was diluted with PBS to a final concentration of 4 μg/mL, and then added to a 96-well ELISA plate at 100 μl/well. The plate was sealed with a plastic film and incubated overnight at 4° C., the plate was washed 2 times with PBS the next day, and then a blocking solution [PBS+2% (w/w) BSA] was added for blocking at room temperature for 2 h. The blocking solution was poured off, and 100 nM gradiently diluted CD19 chimeric antibody or control antibody was added at 50 μl/well. After incubation at 37° C. for 2 h, the plate was washed 3 times with PBS. […] TMB substrate was added at 50 μl/well, and incubated at room temperature for 10 min, and then a stop solution (1.0 N HCl) was added at 50 μl/well. The OD450 nm values were read by an ELISA microplate reader (Multimode Plate Reader, EnSight, purchased from Perkin Elmer).
CD19 protein contains 4 exons in the extracellular region, in which exons 1-3 are located at the membrane-distal end and exon 4 is located at the membrane-proximal end. […] To identify the distribution of antigen binding epitopes of the chimeric antibodies, human CD19 exon 1-3-His (membrane-distal end) was used to coat at 2 μg/mL according to the ELISA method in example 5.1.

B1: F4.96.6 (antibody, human IgG1, V domains shown)
VH: EIQLQQSGPELVKPGASVKVSCKASGYAFSAYNIYWVKQSHGKSLEWIGYIDPYNSGTTYNQKFRGKATLTVDKSSNTAYMHLSSLTSEDSAVYYCTRDGDAMDYWGQGTSVTVSS
VL: EILLTQSPAIIAASPGEKVTITCSASSGVIYMNWYQQKPGSSPKIWIYDVSTLASGVPARFSGSGSGTSFSFTINSMEAEDVATYYCQQRSSYPYTFGGGTKLEIK
notes: human-murine chimeric antibody, human IgG1 constant
As a reminder, the Kd is the free concentration of one partner at which half of the binding sites on the other are occupied at equilibrium, for simple one-to-one binding. A higher Kd goes with lower affinity. The koff is a measure of how fast the partners let go of each other. A high value points to fast dissociation. What is called kon is the second-order rate constant of association. In the experiment with Human CD19-his protein, B1 displayed a Kd of 3.71 nM, a koff of 0.000918 s⁻¹ and a kon of 247000 M⁻¹ s⁻¹. In addition, the binding result in experiment [1] was “no binding (tested: 100 nM)”.

B2: F3.5.1 (antibody, human IgG1, V domains shown)
VH: QAQLQQSGPELVKPGASVKISCKASGYAFSGSWMNWVQQRPGKGLEWIGRIYPGDGDTYYNGKFKDKAILTADKSSSTAYMQLSSLTSEDSAVYFCAQLRYRYVMDYWGQGTSVTVSS
VL: DIVLTQSPASLAVSLGQRATISCRASESVSIHGSHLMHWYQQKPGQPPRLLIYAASNLESGVPARFSGSGSETDFTLNIHPVEEEDAATYFCQQGIKDPYTFGGGTKLEIK
notes: as for B1
As to B2, in the experiment with Human CD19-his protein, the Kd came out at 0.543 nM, the dissociation rate constant (koff) turned out to be 8.47e-05 s⁻¹ and the on-rate constant (kon) turned out to be 156000 M⁻¹ s⁻¹. Also, the binding result in experiment [1] was “no binding (tested: 100 nM)”.

B3: F3.40.14 (antibody, human IgG1, V domains shown)
VH: QAQLQQSGPELVKPGASVKISCKASGYAFSGSWMNWVQQRPGKGLEWIGRIYPGDGDTYYSGKFKDKAILTADTSSSTAYMQLSSLTSEDSAVYFCAQLRSRYVMDYWGQGASVTVSS
VL: DIVLTQSPASLAVSLGQRATISCRASESVSIHGTHLMHWYQQKPGQPPRLLIYAASNLESGVPARFSGSGSETDFTLNIHPVEEEDAATYFCQQGIDDPYTFGGGTKLEIK
notes: as for B1
In the experiment with Human CD19-his protein, B3 displayed a Kd of 1.7 nM, an off-rate constant (koff) of 0.000143 s⁻¹ and an on-rate (kon) of 84300 M⁻¹ s⁻¹. In addition, the binding result in experiment [1] is listed as “no binding (tested: 100 nM)”.

B4: F2.15.26 (antibody, human IgG1, V domains shown)
VH: QVQLKESGPGLVAPSQSLSITCTVSGFSLTDYGVSWIRQSPGKGLEWLGVIWGSGDTYYNSVLESRLSINKDNSKNQVFLKMNSLQTDDAAMYFCAKHSYYGGSFAMDYWGQGTSVTVSS
VL: DIQMTQTTSSLSASLGDRVTISCRASQDISNYLNWYQQKPDGTVKLLIYYTSRLHSGVPSRFSGSGSGTDYSLTISNLEQEDIATYFCQQGKTLPWTFGGGTKLEIK
notes: as for B1
In the experiment with Human CD19-his protein, B4 gave a Kd of 0.839 nM, a koff of 0.000229 s⁻¹ and a kon of 273000 M⁻¹ s⁻¹. The binding result in experiment [1] is recorded as “no binding (tested: 100 nM)”.

B5: F3.113.16 (antibody, human IgG1, V domains shown)
VH: QVQLQQPGAELVKPGASVKLSCKASGYTFTNYWMQWVKQRPGQGLEWIGEIDPSDSYINYNQKFKGKATLTADTSSSTAYMQLSSLTYEDSAVYYCARPVTVPWYFDVWGTGTTVTVSS
VL: EIVLTQSPTTMAASPGEKITITCSATSSISSNYLHWYQQKPGFSPKLLIYRTSNLASGVPARFSGSGSGTSYSLTIGTMEAEDVATYYCQQGSAIPRIFTFGSGTKLEIK
notes: as for B1
In the experiment with Human CD19-his protein, B5 displayed a Kd of 12.4 nM, a koff of 0.00105 s⁻¹ and a kon of 84800 M⁻¹ s⁻¹. Further, the binding result in experiment [1] is on record as “no binding (tested: 100 nM)”.

B6: F1-mab003 (antibody, human IgG1, V domains shown)
VH: EVQLQQSGPELVKPGASVKMSCKASGYTFTDYVMHWVRQTPGQGLEWIGYFNPYNDGTNYNEKFKVKATLTSDKSSTTAYMELSSLTSEDSAVYYCARGVYYYGRDFDYWGQGTTLTVSS
VL: DVVLTQTPLSLPVSLGDQASISCRSSQSLENSNGNSYLNWYLQKPGQSPQLLIYRVSNRFSGVLDRFSGSGSGTDFTLKISRVEAEDLGVYFCLQITHVPWTFGGGTKLEIK
notes: as for B1
In the experiment with Human CD19-his protein, B6 had a Kd of 0.247 nM, a dissociation rate constant (koff) of 0.000111 s⁻¹ and a kon of 450000 M⁻¹ s⁻¹. Besides, in experiment [1], the binding result was “no binding (tested: 100 nM)”.

B7: F6.12.12 (antibody, human IgG1, V domains shown)
VH: DVQLQESGPGLVKPSQSLSLTCSVTGYSITSGYYWIWIRQFPGNKLEWMGYISYDASNKYKPSLKNRISITRDTSKNQFFLKLNSVTAEDTATYFCAREDLRGYFDVWGTGTSVTVSS
VL: DIVLTQSPASLAVSLGRRATISCRASQSVSTSGFSYMHWYQQKPGQPPNLLIKYASILQSGVPARFSGSGSGTDFILNIHPVEDVDTATYYCQHSWGIPFTFGSGTKLEIK
notes: as for B1
In the experiment with Human CD19-his protein, B7 registered a Kd of 1.46 nM, an off-rate constant (koff) of 0.000245 s⁻¹ and a kon of 167000 M⁻¹ s⁻¹. In experiment [1], the binding result was “no binding (tested: 100 nM)”.

B8: F3.3.10 (antibody, human IgG1, V domains shown)
VH: DVQLQESGPGLAKLSQSLSLTCSVTGYSITSGYYWNWIRQFPGNKLEWMGHISYDGNNNYNPSLKNRISITRDTSKNQFFLKLNSVTTEDTATYYCARENYSNYYFDYWGQGTTLTVSS
VL: DIVLTQSPASLAVSLGQRATISCRASQSVSKSSYTYIHWYQQKPGQPPKLLIKYASILQSGVPARFSGSGSGTDFTLNFHPVEEEDTATYYCQHSWEIPYTFGGGTKLEIK
notes: as for B1
As for B8, in the experiment with Human CD19-his protein, binding was put at a Kd of 8.47 nM, the koff amounted to 0.000621 s⁻¹ and the kon amounted to 73400 M⁻¹ s⁻¹. Also, the binding result in experiment [1] is “no binding (tested: 100 nM)”.

B9: F3.83.9 (antibody, human IgG1, V domains shown)
VH: DVQLQESGPGLVKPSQSLSLTCSVTGYSITSGYYWNWIRQFPGNKLEWMGYISYDGGNNYNPSLKNRISITRDTSKNQFFLKLNSVTTEDTATYFCAREDYSNWYFDVWGTGTTVTVSS
VL: DIVLTQSPASLAVSLGQRATISCRASQSVSKSSYSYMHWYQQKPGQSPKLLIKYASILKSGVPARFSGSGSGTDFTLNIHPVEEEDTATYYCQHSWEIPWTFGGGTKLEIK
notes: as for B1
Take B9: in the experiment with Human CD19-his protein, binding was characterised by a dissociation constant (Kd) of 3.67 nM, the koff is 0.000312 s⁻¹ and the kon amounted to 85100 M⁻¹ s⁻¹. Also, the binding result in experiment [1] is “no binding (tested: 100 nM)”.

B10: F3.64.4 (antibody, human IgG1, V domains shown)
VH: EVQLQQSGPELVKPGASVKISCKASGYTFTDYHINWVKQSHGKSPEWIGDINPNNGGTTYNQKFKDKATLTVDKSSSTAFMELRSLTSEDSAVYYCARFITTVVAWYFDVWGTGTTVTVSS
VL: DIQMTQSPASLSVSVGETVTITCRASENIYSNLAWYQQKQGKSPQLLVYAATNLADGVPSRFSGSGSGTQYSLKINSLQSEDFGNYYCQRFWDTPRTFGGGTKLEIK
notes: as for B1
In the experiment with Human CD19-his protein, B10 yielded a Kd of 1.64 nM, a koff of 0.000313 s⁻¹ and a kon of 191000 M⁻¹ s⁻¹. Further, in experiment [1], the binding result is recorded as “no binding (tested: 100 nM)”.

B11: F3.81.2 (antibody, human IgG1, V domains shown)
VH: QVQLQQPGAELVMPGASVKLSCKASAYTFTNYWMHWVKQRPGHGLEWIGEIDPSDSYTDYNQNFKAKATLTVDKSSSTAYMQLSSLTSEDSAVYYCARLMGRYFDVWGTGTTVTVSS
VL: DIVMTQSHKFMSTSVGDRVSITCKASQDVSAAVAWYQQKPGQSPKLLINSASYRYTGVPDRFTGSGSGTDFTFTISSVQAEDLAVYYCQQHYSTPLTFGAGTKLELR
notes: as for B1
Turning to B11, in the experiment with Human CD19-his protein, binding was characterised by a dissociation constant (Kd) of 0.766 nM, the koff stood at 0.000104 s⁻¹ and the kon was found to be 135000 M⁻¹ s⁻¹. Moreover, in experiment [1], the binding result is “no binding (tested: 100 nM)”.

B12: F3.13.2 (antibody, human IgG1, V domains shown)
VH: DVQLQESGPGLMKPSQSLSLTCSVTGYSITSGYYWNWIRQFPGNKLEWMGYISYDGSNNYNPSLKNRFSITRDTSKNQFFLKLNSVTTEDTATYYCARRKLTGGPYFDYWGQGTTLTVSS
VL: DIVLTQSPASLAVTLGQRATISCRASESVSFHGFHIMHWYQQKPGQPPKLLIYAASHLVSGVPDRFSGSGSETDFTLNIHPVEEEDAAAYFCQQSVEDPWTFGGGTKLEIK
notes: as for B1
In the experiment with Human CD19-his protein, B12 returned a Kd of 8.13 nM, a koff of 0.000526 s⁻¹ and a kon of 64700 M⁻¹ s⁻¹. The binding result in experiment [1] was “no binding (tested: 100 nM)”.
